Measured values reported in patent US20110243955A1 (FUSION ANTIBODIES, published 2011).

How the values were obtained:
[1] = molecular target: human cathepsin B (recombinant) (human, UniProt P07858 80-333); assay: western blot of recombinant cathepsins
Description: (§1) FIG. 15 MAb1 specifically binds Cat S on western blot. The antibody was used to probe against human cathepsin B, L, S and K (100 ng each).
(§2) Western blots were performed as described before to show specificity of the antibody binding to Cat S and not to CatB, L or K. Briefly, 100 ng of recombinant Cat S, K, L and B were loaded onto a SDS-PAGE gel, then transferred onto Hybond-C Extra nitrocellulose membrane (Amersham. Biosciences). The membrane was blocked by incubation in PBS/5% marvel for 1 hr at room temperature, after which it was rinsed briefly in PBS. The monoclonal antibodies were used at a 1:500 dilution in PBS and incubated on the membrane overnight at 4° C. while gently rocking. The blot was then rinsed three times with PBS/1% marvel and 0.1% Tween-20 and then incubated with the goat anti-mouse HRP conjugated secondary antibody at a 1:3000 dilution for 1 hr at room temperature while shaking. The blot was then rinsed three times with the PBS/1% marvel and 0.1% Tween-20 solution, followed by a short rinse in PBS. The blot was incubated with ECL plus substrate (Amersham Biosciences) for 5 mins at room temperature before development using Kodak photographic film under safe light conditions (FIG. 15).

[2] = molecular target: T1, human cathepsin L (recombinant) (human, UniProt P07711 114-333, limits assumed); assay: western blot of recombinant cathepsins
T1 construct: Called 'purified CatL' in the activity assay; also called CatL; Cat L
T1 sequence (P07711 114-333 limits assumed): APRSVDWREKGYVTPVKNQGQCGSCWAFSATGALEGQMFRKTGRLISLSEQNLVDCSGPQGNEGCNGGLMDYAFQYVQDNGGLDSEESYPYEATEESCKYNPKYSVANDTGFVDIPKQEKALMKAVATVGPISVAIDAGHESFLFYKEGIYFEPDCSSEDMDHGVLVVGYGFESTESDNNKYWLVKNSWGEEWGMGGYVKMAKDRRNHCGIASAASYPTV
Description: as §1, §2

[3] = molecular target: T2, human cathepsin K (recombinant) (human, UniProt P43235 115-329, limits assumed); assay: western blot of recombinant cathepsins
T2 construct: Called 'purified CatK' in the activity assay; also called CatK; Cat K
T2 sequence (looked up): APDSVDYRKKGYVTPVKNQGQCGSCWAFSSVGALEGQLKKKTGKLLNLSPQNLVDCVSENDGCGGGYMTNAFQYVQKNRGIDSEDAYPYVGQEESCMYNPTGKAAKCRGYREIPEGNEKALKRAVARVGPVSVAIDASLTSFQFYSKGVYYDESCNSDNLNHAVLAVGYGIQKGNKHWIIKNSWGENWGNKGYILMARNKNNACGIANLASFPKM
Description: as §1, §2

[4] = molecular target: T3, recombinant human Cat S (Calbiochem) (human, UniProt P25774 115-331, limits assumed); assay: fluorimetric enzyme assay with Cbz-Val-Val-Arg-AMC; progress curves of a slow-binding inhibitor fitted by non-linear regression (Morrison and Walsh, GraFit)
T3 construct: Bought enzyme used in the fluorimetric activity assays; also called cathepsin S
T3 sequence (P25774 115-331 limits assumed): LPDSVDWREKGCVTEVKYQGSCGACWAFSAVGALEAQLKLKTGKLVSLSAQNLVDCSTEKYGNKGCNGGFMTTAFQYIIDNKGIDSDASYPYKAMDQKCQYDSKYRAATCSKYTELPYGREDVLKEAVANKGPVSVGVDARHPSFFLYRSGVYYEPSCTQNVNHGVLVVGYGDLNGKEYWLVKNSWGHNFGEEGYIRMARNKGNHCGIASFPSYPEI
Description: FIG. 12. Quantification of inhibitory activity of Cat S MAb1 (Mab 1E11). Rates from the progress curves of (Mab 1E11) [FIG. 11], which were indicative of a slow binding inhibitor, were fitted by non-linear regression using GraFit software according to the method of Morrison and Walsh, 1988.
The inhibitory effect of the monoclonal antibodies were determined by a flurometric assay, using a Cat S synthetic substrate Z-Val-Val-Arg-AMC (Bachem) and recombinant human Cat S (Calbiochem). The recombinant Cat S enzyme was activated at 37° C. in sodium acetate buffer (100 mM sodium acetate, 1 mM EDTA, 0.1% Brij90, pH 5.5), and 2 mM dithiothreitol (DTT) for 30 mins prior to assay. Assays were carried out using 190 μl of sodium acetate/DTT buffer (90:1), 1 μl of activated Cat S, 12.5 μl of 10 mM Cbz-Val-Val-Arg-AMC substrate and 50 μl of non-purified monoclonal antibody supernatant. Fluorescence was measured at 375 nm excitation and 460 nm emission wavelengths every 5 mins for 4 hrs (FIG. 8). […]
The purified monoclonal antibodies were analysed by flurometric assay for quantification of their ability to inhibit the activity of Cat S. The principles of this assay are the same as that previously used. Fluorescence was measured at 375 nm excitation and 460 nm emission wavelengths every minute for 1 hr. […]

binding result [1]: no binding
binding result [2]: no binding
binding result [3]: no binding
Ki [4]: 533 nM
B1: Cat S inhibitory monoclonal antibody Mab 1E11 (antibody, V domains shown)
VH: VQLQESGGVLVKPGGSLKLSCAASGFAFSSYDMSWVRQTPEKRLEWVAYITTGGVNTYYPDTVKGRFTISRDNAKNTLYLQMSSLKSEDTAMYYCARHSYFDYWGQGTTVTVSS
VL: DVLMTQTPLSLPVSLGDQASISCRSSQSLVHSNGNTYLHWYLQKPGQSPKLLIYKVSNRFSGVPDRFSGSGSGTDFTLKISRVEAEDLGVYFCSQTTHVPPTFGSGTKLEIKR
notes: Whole mouse monoclonal antibody from a hybridoma (BALB/C mice), purified from supernatant; also called Cat S MAb1
